Assay: soluble fraction after stress (log2 fold change); higher = more stays soluble; pooled small domains, quantitative proteomics
Details: stress: 75 degC
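Note: 20 min heating vs room temperature control held 20 min.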

Sequence	soluble fraction (log2)
HMTKKEFLDILTESLAGNVPASEIEENIRYYKDYIENGEESEEKALEQLGDPHLIARTIIDSFIA	-0.0899
HMSSDLESVIGTHSQEANFALRSWGWIQPDETWKNLRPDQVSQILERANEFMAKAIESFANAQSE	-0.141
HMIADPLVINKLMDSMALAINDYNPDSVEPVLDELRQYFSENQLRELSKAMDDFDFDEALNALTLLRT	-0.185
HMGVSVNVQPAILDWAMQKAQMGNAGSSVIEMIAKWISGEKAPTFNQIEDVSKKISIPFGFFFLKEPPIE	-2.05
HMAEQLGNSRTANMVMLGAMIERTGVISIDSAMEALKATFGPKKEHLLPINRQAMEAGAAAARAV	0.104
HMDIRMLLSDREEEIMILLSKGLSISEAANRMQIGQASAATYLNRARRKLKAETVRQAVAIWTGD	-1.87
HMKITFNPVSSGRLDIILAEKTGYTRSYVKQLVEKQAVTINGEAAKKSGQNVKAGDEIALDEP	0.151
HMTTGLETYPGKIAVVSDDFIDGEGRVQLDGALWRAKTKDHQQLKQGDHVTIVNVKGLTLTVMPDD	0.716
HMGEIHAQIPGLVSHLFVKEGNTVQVEQKLFILEAMKMENEIDSPIQGTVKRIHIATGSKVEKGDLIMEIS	-1.47
HMGSQELIQLGERIRQKRKDSHLTQETFAEKAGISVNTVSRIEGGQAAMSIEIFAKLVEILDADANELLG	-1.39
HMRSRHYRFSTPFLDRLIAEIDWNSDNALSIFNQKLVHFDFLKYFSAIQPGSIVEIENLNFIWTGKRLEAH	-3.37
HMAVRLADMAAEKIRKMIIENKFDAGEPLSEMRLAEMFNVSRTPIREAIAILEQEGLLTTVHGKGAFIS	-0.896
HMLNAPFGFRIEDDTLIPIPEEAKVVRQIFRYYLQGMGFGKIAQELNGQDVPGKPWGKERIKYILSNEKYI	-2.47
HMINDKLQHLFSLFPAMDKELKRKGITRQILWVEYKKQYPLGFGRSQFNSYFAAWKAQVSPS	-1.98
HMTALPPNVSIDSDERRLLEAIGFDPVDMDVLARDGQFSSVDLFRLLVSLELKGLVENQHGAYQRL	-1.85
HMFWEGYLAARREQFLKDQQVLLGNEFRSNPDFWLEVASKEWAVVEERLSTGADVSEEVQETMGLDF	-2.13
HMERFRQVNAGMTRDDIYQLLGKPTEKTPFPLKNEEVWSWRHQADGQTVALFNIHLDPDGRVTTTSQSMDL	0.739
HMDRNIVYSDFIRSVNQGQVSEVLVQGDNIRGRYLNGKVFQTFAPKDPSLISTLRNKGVRISAEPA	0.00952
HMVMPTGRVRYYDAEKGFGFLSKDSGGDDVYVRSSALPAGVTSLKRGQKVEFGIIDGKRGEQALSVHLL	-0.202
HMSVIETLLSDREREVLTHLVNGYDAKRIAEITGISTLTVRKHIANIYTKLHVNSKAQVISMAHKNKWF	-2.7
HMADYSGYLGKKGKVIAPLRPAGTALIDGERVDVVSFGDYIDKDSEIEVVKIEGSKLLVKKY	0.28
HMFDFGNHLRMLREKHGISQEELGRRVGRAGSVISNYENNIKIPTLDVLTTMARIYDVSLDYLVG	-1.59
HMTGDIIKQERKKKNLTQIELAKKVGISRNALINYEAGTRIPPISVQLKLADVLGIDILDLK	-1.64
HMESPLNPTDVRRAAMDLLARREHGVEELRLKLKRRFGREEDFETIATEQLQRLVDEDLLSDTRF	-0.355
HMPSDLQATLRAVQGMLQGVEGVDARLAGQRILLEGDSADARARERAAAIAGIFPGVVIDFVG	-0.263
HMAAPLTDRETEVLTLLARGLINKQIAEELHIGLTTVITHRRNIMEKLRVRSLAELILRAVAAGYVDAGR	-1.79

Sequence	soluble fraction (log2)
HMSVNEKVRLFRELNQWSQEEMAERMNMSVAGYAKIERGETNISLHKLKQIASVLQIDLLDLVS	-2.1
HMQSSDQTDNIYENAVSIVLETGKASASHLQRVLGIDYNLAAHLIDKMEDGGLLSPPNYLGHRDVYGYT	0.317
HMVAPKTEEQQKMFLESIVTKRQAETLIEKYPNIVQDIIDGTDNVDLANLKGIGEHTYNLIKEKVLSNY	0.546
HMSGVIVPDIYNKTLAEAVASLEGEGFSTEKKEGYSDTVPKGNVMSQKPEAGTSAERGSTVTITISQGPQ	0.0579
HMQYQIITENGKQYYLYTVQKSEGFYSIGKRFEITNDEIIKANPEAALGLKLGQVLKIPVYK	-2.4
HMEQIETIFLSAAPYARTHIIHLLETSELFRDKYLTIVETSNGLLIYTEDKNRLLGILNSLT	-2.51
HMGQVAKPPLKELGADPVTGKPMVLKDGRFGPYVTDGEYNASLRKDDDIETIGVERAAELLQIRREKGP	-0.252
HMSGYFSDKKLNELFEQYLIMREKKGKPVVGYQLKILIDRLNQVAANTKEKIEVVSNAIAGDWNTFYPIKR	-2.07
HMVVPSNPDELKGSFSLAEVASGYGLEVAAILEKAGWPADTDPNVKMRDAANAIGRDSTDIRNAVKALLKS	0.156
HMNIDVAAEKQQLGPNADQIVKGTVTWMQGLVAKGIWSETDFEEGKIFTATADGINAINKIRRYYGEQT	0.0956
HMVFKSAQEGLDFYSKQLNDVDATLGRIRRGEESGNGLYGSNRVKNLEEQRKKLDSFVTAYRNAVNAT	0.0212
HMGTRIQAVMEDIQSRIAARTYLPGTRLPSVRAQAQAMQVSVSTVVEAYERLAAEGVIASRPGSGFYVAGP	-3.05
HMGAGKVVDGVTYDFVFDVDVADGQPPLRLPYNRGEDVYQAAERFILRNELPATYREQIVNFIVQNTPG	-0.116
HMRSVPNVAGLGMDGAAFQLGKAGFAIGTITPADDPKAVVGSIQRTEPAAGTVADRDTVVNLFQV	0.228
HMKEYRKEGHLYFVTEDRNNEIYLWDFTDKPKHEFKEIITSVELQKVAKEGAMLQYKNGKYELYS	-0.78
HMFGIEIPEEAGKLQDYTLTDDDLEGGNTLKEIQFPQGARVVIIRRDDKFIIPDGSVELQSGDQLLIIYGE	-1.59
HMVPVVGTTIPHEFIGKFGSARVMLKPAVEGSGVIAGGSARAVLELAGYKDIKTKVLGTNNPRNVVYATMN	0.238
HMAEEFESMTEARRLELARLVDSRGFVRVTDAAEELGVSDVTIRGDLSELERRGLLTRVHGGAMPVT	-0.00431
HMEREQNIAQGREVVQRELKRLGLTDVFTVEDIGRALKFDDIDEFLSKVGFGDIQTAKITGAIALMQQALR	-0.0649
HMPRPRIHSVVRGDTLYGISRQYGVAMSKLASLNGLKSPYRIMVGRSLRLPSAIEAERDRTAREVVQ	-1.53
HMDFGMPEELQKKLDKMPALKAAFEALTPGRQRGYIFYFSQPKQSKTRELRIEKSIEQIMNGKGLND	-0.414
HMRTKEGLASQLEKIPGIGPVKRKALLKKFGSIDAIAAASKEELMLTDGITSSLADAIRDYF	-0.0754
HMSDMIGQNIRRLRTEKQMTQKALADKLFVTAQAVSRWENGEVEPSLSTVTEIARIFNVSADEILGI	-0.228
HMKFPPASDIRRMRKAIDVTQTELAKQSGVSQSTIAKIERGRISASYDTVVKLFETLDEMAK	-0.405
HMPSSIEGIEKYLGSGMIRGIGAVYAKRLVKQFGKDVFDIIEETPERLREVEGIGPIRAARIISGWADQ	-0.363
HMPQLEDLEPLDSSGMVRRDGPHLVLAVGRHRGRHLEEVRDSDPSYLHWLLSPKGIEDIQAKEDIKTYLNL	-0.0235

Sequence	soluble fraction (log2)
HMNIVINVDTPTFEQMKATYQAPGTLPAGASFHAKLKGVTVTGYTKSHKVMFQGALANQEAARWQ	-1.88
HMNTKLKPLYLLDIFREMTDERHRMTVPELLEELQRRGITAERKGIYRDIDALIQYGADIKHTGTGYYLAR	-0.93
HMKEIKAPNKINAHLIEEWRSQHPTELFPEEKVDLIYYKGEEYYFVIEEKNELGEIEEWYFAYDGGIDYV	0.372
HMSEYTRGELVSSLEAGEVAAVSIRPNRETPTGEAQIVLSDGQHRVLYVTDVREIEELVSSYGLNPQVEK	0.196
HMENHILIIDDDLMLLKTAEEILSDQYNVSVAKSGIQALNLLNKNIIPDLILLDIDMPQMDGYETL	-0.0633
HMVITEQTVTVKYLYEDDTEAAPEHSETHKTGETFEIESPKIDGFTPDYELITGTIANDDLVYIVRYKTTP	-0.487
HMKERLLDPYKDFIVNYLQKYPYTPAAVMHDKLKESYPDFPKVDPKTIYNFVMLLRRDFNIPKV	-0.842
HMNGEAQTMYVTARTLNVRKGPGTSYAKAGTLSRGTAVQVVGFSGNWAKLSNGYYVSTSYLAKI	-4.25
HMYNNDEIEKIQTMYNAIYQLNDIEKALIMLFLEDKSYKEIAEIMGISEGNARIKMMRTKDKLKNLISKN	-0.527
HMFKINNIIVSGLSEKSNLQTSEEIKNILFENIFFIKKDVLFKILEKNNLINSFEIKKIYPDTIEVKIKKT	0.0453
HMKILNYQSLVGKKGITKSMLRPAGIVEIEGRRYDVVTRGEFIEPGKMITVDEVQGNRIIVQIERE	-0.758
HMGTRYVEFVIPGTGNHEVRIVSSNGSRQNVEVAGTYPGGARLRTKVDNGVRRVSFYVDNRLVEEKQ	-0.26
HMEFQEQLYRLRKQAGLSQEELSHIIGVSRQAVQKWEAGSARPDLDNLIALASHFKLSLDQLVGLT	-1.01
HMEGVSPQTVQEHIRRFIAAEDPASPLSDEALREALGNLGINASRRTVAKYRGEMGIPSSAQRKR	-0.0573
HMKPFVVVPIDQVRVGMFIQLDLGWMQHPFPVGSFRVASEAQIDTLRSLDLESVRYLPAKSDPAFQQP	-2.82
HMVMNYKKIGKKIADRRILLGITQEELAEKVDSSANYISNIETGIKSGSLIFYIKVANELKLSLDFLFSDE	-3.09
HMSNYIVELSSSEKIDDIDNNNNLINSFFSKSDSQWEYKLVFKNKNEMDVFVKKISTNNKIISYKTSS	-1.17
HMFKITNTLNKTAEVYLTIPENKKGKGKIMISVNGAFHELEAMTENDKIQSGAVVKVVRIENDNILIVET	-2.18
HMPEIFYRKIHRTDHDQIALDAEMIRLLIAIDEKKSLSQIAAEVQMEPMALKKNLGKLIQLGLVEPIK	-0.616
HMEELLVAVKADGSIWADGRPITPDGLASFIDSKPADAVLNLAVDKKAPFAAFVKVVDVAKEKKSGRFVIR	-0.41
HMATPYISMAGIGKSFGPVHALKSVNLTVYPGEIHALLGENGAGKSTLMKVLSGIHEPTKGTITINNIN	0.458
HMSLSASELDQLRMMTKVSHMYHTRGMVQIDIARSLGLSQARVSRLLSAAEDANIVRTVVVA	-0.392
HMASVDDILDRFKQAAKVTTDADLAKVLGLSRQSIAAARLRAKIPASWFPKMSSLFNISTEWLYRG	-1.18
HMDRYAVRAEELAAALAQYHRHVGVYPENLEDLIAPTGPRGYRGPYLSELPTNPSTSKPDWGYDPATGRVS	0.432
HMAVVAPLAGSVARVLVADGDEIEAGQVLLVLEAMKMETEITAPKAGKVGAILVGKGDSVQGGQGLR	-0.18

Source: the domain aggregation screens of Martell et al. (2025)
